Assay [1] relates to TS-exposed mice (C57BL/6J), pulmonary inflammation. Briefly: Tobacco smoke model, cells recovered in bronchoalveolar lavage. Format: in vivo, mouse. The procedure:
The response consisted of significant increases in the numbers of macrophages, epithelial cells, neutrophils and lymphocytes recovered in BAL.
Vehicle (PBS), MOR12743 and MOR03207 were administered i.p., 1 h prior to TS-exposure on days 1, 4, 7 and 10 of the study. Roflumilast was administered p.o., 1 h prior to each TS-exposure.
In this exposure protocol, mice were exposed in groups of 5 in clear polycarbonate chambers (27 cm×16 cm×12 cm). The TS from ‘Marlboro 100’ cigarettes was allowed to enter the exposure chambers at a flow rate of 100 mL/min. In order to minimise any potential problems caused by repeated exposure to a high level of TS, the exposure period to TS was increased initially from 25 minutes at the start of the study (day 1) to a maximum of 45 minutes on day 3. The exposure schedule used in this study was as follows:
The trachea was cannulated using a 10 mm long Luer fitting stainless steel cannula. Phosphate buffered saline (PBS) was used as the lavage fluid. A volume of 0.4 mL was gently instilled and withdrawn 3 times using a 1 mL syringe and then placed in an Eppendorf tube and kept on ice prior to subsequent determinations.
Lavage fluid was separated from cells by centrifugation (6 min at 3400 rpm, RCF=3070×g—‘Eppendorf Mini Spin’) and the supernatant decanted and frozen for possible subsequent analysis. The cell pellet was re-suspended in a known volume of PBS and total cell numbers calculated by counting a stained (Turks stain) aliquot under a microscope using a haemocytometer.
The residual cell pellet was diluted to approximately 10^5 cells per mL. A volume of 500 μl was placed in the funnel of a cytospin slide and centrifuged for 8 min at 800 rpm, RCF=72.26×g (Shandon Cytospin 3). The slide was air-dried and stained using Wrights/Giemsa stain as per the proprietary instructions. When dried and cover-slipped, differential cell-counts were performed using light microscopy. Approximately 400 cells were counted for each slide. Cells were identified using standard morphometric techniques.
In this study, 4 groups of mice were subjected to daily TS-exposure for 11 days and were sacrificed on the 12th day, 24 h after the final TS-exposure. Three groups received either vehicle (D-PBS), MOR12743 or MOR03207, i.p., 1 h prior to TS-exposure on days 1, 4, 7 and 10 of the study. One group received Roflumilast, p.o., 1 h prior to each TS-exposure. A further group was exposed to air for 11 consecutive days and sacrificed on the 12th day, 24 h after the final air-exposure. This group received vehicle (D-PBS), i.p., 1 h prior to exposure on days 1, 4, 7 and 10 of the study. For all groups n=10.
All mice were killed on day 12, by intra-peritoneal barbiturate anaesthetic overdose, 24 h after final exposure to air or TS. A blood sample was taken over heparin from the sub-clavian vein and the plasma separated by centrifugation and stored at −40° C. A BAL was performed using 0.4 mL of phosphate buffered saline (PBS). Cells recovered from the BAL were used for the total cell and differential cell counts. The BAL supernatants and remaining cell pellet were stored at −40° C. and −80° C. respectively for possible future analysis. Following BAL, the cannula was left tied in place. The heart and lungs were removed after gently opening the thorax and cutting down either side of the sternum and ribs. The left lobe was tied off, removed, snap-frozen and stored at −80° C. The right lobe was inflated with 10% phosphate buffered formalin (PBF) to a pressure of 18 cm of PBF for 20 minutes. The trachea was then ligated below the cannula and the cannula removed. The heart, lung & trachea were immersed in PBF.
The data were therefore initially subjected to a one-way analysis of variance test (ANOVA), followed by a Bonferroni correction for multiple comparisons in order to test for statistically significant differences between treatment groups. A “p” value of <0.05 was considered to be statistically significant. […]

In assay [2] the test system is Balb/c N mice, IMQ induced psoriasis. Briefly: Imiquimod (IMQ) psoriasis-like mouse model. Type of assay: in vivo. To be noted: 10 mg/kg i.p., 3 days before and at D0. The text has this:
The pro-inflammatory function of IL17C in the skin was examined in a non-infectious cutaneous inflammation mouse model of psoriasis where topical TLR7-TLR8 agonist Imiquimod induces psoriatic skin lesions characterized by epidermal proliferation and leukocyte infiltration, which are dependent on pathogenic TH17 cytokines (Van der Fits et al., J of Immunol. 2009 May 1; 182(9):5836-45.). The role of IL17C in this particular model was recently documented (Ramirez-Carrozzi et al, Nat Immunol. 2011 12(12):1159-66) and a convincing genetic proof of the IL17C role in the disease model was provided with IL17C^−/− mice. […]
In order to induce a psoriatic-like response, a daily topical dose of 62.5 mg of Imiquimod cream on the shaved back and the right ear for 5 consecutive days (D0-D4), translating in a daily dose of 3.13 mg of the active compound. The control group was constituted with mice receiving the same quantity of Vaseline cream. […] Body weight was daily recorded. At necropsy and at the days indicated, the ears and the back skin thicknesses were measured using a micrometer (Mitutoyo). […] Spleen and thymus weight was measured.
Mice were randomly divided into equal groups (n=10). […] The control group was constituted with control mice receiving the same quantity of Vaseline. […]

Where [3] appears, read: 5 mg/kg i.p. on days 1, 4, 7 & 10.

Experimental findings from patent US10815297B2, “Antagonists of IL17C for the treatment of inflammatory disorders” (MorphoSys AG, priority 2011, dated 2020) are described below.

B1: MOR12743: anti-mouse IL17C HuCAL antibody; CDRs SEQ ID NO: 31-36, VL 37, VH 38; human/mouse chimeric IgG2a (antibody, V domains shown)
VH: QVQLVQSGAEVKKPGASVKVSCKASGYTFTSNFIHWVRQAPGQGLEWMGWISPYNGDTNYAQKFQGRVTMTRDTSISTAYMELSRLRSEDTAVYYCARESVYYGSDYGYNGMDIWGQGTLVTVSS
VL: DIELTQPPSVSVSPGQTASITCSGDNLGEEYVSWYQQKPGQAPVLVIYDDTKRPSGIPERFSGSNSGNTATLTISGTQAEDEADYYCASWDLWSVEVFGGGTKLTVLGQ
modifications: mouse IgG2a constant regions; VH; VL
For B1, in assay [1] (setting [3]), the “Inhibition of epithelial cells in BAL” value is 52%, the “Inhibition of lymphocytes in BAL” value amounted to 24%, the “Inhibition of macrophages in BAL” value is on record as 6% and the “Inhibition of neutrophils in BAL” value turned out to be 48%. In addition, in assay [1] (5 mg/kg i.p. on days 1, 4, 7 & 10, 1 h prior to TS-exposure, BAL 24 h after last of 11 daily exposures), the “Inhibition of total cells in BAL” value is 26%. In addition, in assay [2], the “effect on epidermal thickness induced by IMQ in the mouse ear skin (histology)” value is recorded as “significant”.
